{
  "source": "paper PMC5473940",
  "about": "“SAF-A Regulates Interphase Chromosome Structure through Oligomerization with Chromatin-Associated RNAs” (Cell, 2017)",
  "proteins": {"B1": {"name": "full-length FLAG-tagged SAF-A (293T) (natural protein)", "chain": "not shown", "notes": "SAF-A (HNRNP-U), human cDNA from Genome Cube; Modified pcDNA5/FRT vector; also called FLAG-SAF-A; 3xFLAG-SAF-A; source: 293T, expressed, cross-linked in cells, immuno-purified (anti-FLAG M2 agarose, 3xFLAG peptide elution); not shown: 3xFLAG, N-terminal, kept"}},
  "target": "the molecule itself",
  "experiment": "native gel or EMSA; FLAG-SAF-A cross-linked in cells with 1 mM DTME, immuno-purified, cross-links reversed with 10 mM DTT, incubated 30 min at 37°C with 1 mM ATP or ATPγS, RNase A/T1 or apyrase (the last two promoted monomerization); native PAGE and western blot",
  "data": [
    {"protein": "B1", "values": [
      {"measurement": "binding result", "value": "binds"}
    ]}
  ]
}
